Experimental data: patent US20200339678A1 (RIGEL PHARMACEUTICALS, published 2020)
Numbering of substitutions follows the chain as printed. Numbers in names are those of the source.

B1: Ab48i1 (antibody, V domains shown)
VH: EVQLLESGGGLVQPGGSLRLSCAASGFTFSSYSMNWVRQAPGKGLEWVANIKSSGSSTSYADSVKGRFTISRDNSKNTLYLQMNSLRAEDTAVYYCARGPYDVWMDYWGQGTLVTVSS
VL: not shown
notes: hIgG1 of Ab48
B2: Ab40i5 (antibody, V domains shown)
VH: B1 VH with N50G, G55S, S56G, S57N, T58K, S59Y
VL: not shown
B3: Ab48i2 (antibody, V domains shown)
VH: B1 VH
VL: not shown
notes: mIgG2a of Ab48
B4: Ab53i3 (antibody, V domains shown)
VH: B1 VH with S33G, N35H, N50S, G55S, S57N, T58K, S59Y, M105L
VL: not shown
notes: hIgG1 of Ab53, S33G
B5: Ab53i6 (antibody, V domains shown)
VH: B1 VH with S33G, N35H, N50S, S53Y, G55S, S57N, T58K, S59Y, M105L
VL: not shown
B6: Ab53 (Fab, V domains shown)
VH: B1 VH with N35H, N50S, G55S, S57N, T58K, S59Y, M105L
VL: not shown
B7: Ab53i2 (antibody, V domains shown)
VH: B1 VH with N35H, N50S, G55S, S57N, T58K, S59Y, M105L
VL: not shown
notes: hIgG1 of Ab53
B8: Ab53i1 (antibody, V domains shown)
VH: B1 VH with N35H, N50S, G55S, S57N, T58K, S59Y, M105L
VL: not shown
notes: mIgG2a of Ab53
B9: Ab53i4 (antibody, V domains shown)
VH: B1 VH with S33G, N35H, N50S, G55S, S57N, T58K, S59Y, M105L
VL: not shown
notes: mIgG2a of Ab53, S33G
B10: Ab48 (Fab, V domains shown)
VH: B1 VH
VL: not shown
notes: clone from a phage library of monovalent human Fabs; also called clone Ab48
B11: Ab117 (Fab, V domains shown)
VH: B1 VH with S33A, N35S, N50A, G55A, S57T, T58I, S59Y, G99E, D102S
VL: not shown
notes: clone from a phage library of monovalent human Fabs; also called clone Ab117
B12: Ab53 (Fab, V domains shown)
VH: B1 VH with N35H, N50S, G55S, S57N, T58K, S59Y, M105L
VL: not shown
notes: clone from a phage library of monovalent human Fabs; also called clone Ab53
B13: Ab143 (Fab, V domains shown)
VH: B1 VH with N35H, N50A, K52N, S54N, G55A, S56G, T58S, G99V, D102G
VL: not shown
notes: clone from a phage library of monovalent human Fabs; also called clone Ab143
B14: Ab1 (Fab, V domains shown)
VH: B1 VH with S33A, N35H, A49S, N50G, K52S, S54N, S56G, G99V, D102S, M105I
VL: not shown
notes: clone from a phage library of monovalent human Fabs; also called clone Ab1
B15: Ab40 (Fab, V domains shown)
VH: B1 VH with S33G, N50G, S53Y, G55S, S56G, S57N, T58K, S59Y
VL: not shown
notes: clone from a phage library of monovalent human Fabs; also called clone Ab40
B16: Ab143 (Fab, V domains shown)
VH: B1 VH with N35H, N50A, K52N, S54N, G55A, S56G, T58S, G99V, D102G
VL: not shown
notes: ARV
B17: Ab117 (Fab, V domains shown)
VH: B1 VH with S33A, N35S, N50A, G55A, S57T, T58I, S59Y, G99E, D102S
VL: not shown
notes: ARE

What follows are binders tested against T1, mouse TIGIT-Fc (mouse, UniProt P86176 29-148) (assay: comp. ELISA vs PVR).
T1 construct: extracellular domain; also called TIGIT-ECD; not shown: Fc
T1 sequence (looked up): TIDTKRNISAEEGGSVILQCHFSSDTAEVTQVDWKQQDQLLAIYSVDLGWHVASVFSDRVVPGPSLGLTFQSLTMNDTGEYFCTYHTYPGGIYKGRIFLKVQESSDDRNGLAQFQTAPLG
Method: (§1) Antibodies were serially diluted in a 10-point curve starting at 1 μM in 3-fold steps. […] Units are in microM.

Binder | IC50 [nM]
B1 | 1.5
B2 | 16.9
B3 | 1.9
B4 | 18.5
B5 | > 1000
B6 | 35.3
B7 | 1.5
B8 | 4.2
B9 | 48.2

Each binder was assayed against T2, biotinylated human TIGIT (human, UniProt Q495A1 22-141, biotinylated (EZ-Link NHS-PEG4-biotin kit)) (assay: comp. ELISA vs PVR).
T2 construct: extracellular domain; also called TIGIT-ECD
T2 sequence (looked up): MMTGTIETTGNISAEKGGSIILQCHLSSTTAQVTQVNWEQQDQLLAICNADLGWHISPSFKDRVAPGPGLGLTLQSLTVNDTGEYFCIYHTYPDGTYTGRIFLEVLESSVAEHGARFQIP
Method: as §1

Binder | IC50 [nM]
B1 | 1.9
B2 | 4.2
B3 | 1.6
B4 | 8.3
B5 | 1.7
B6 | 9
B7 | 0.6
B8 | 1.6
B9 | 6.7

Each binder was assayed against T3, mouse TIGIT-Fc (mouse, UniProt P86176 29-148) (assay: competitive ELISA, mTIGIT-Fc to coated PVR).
T3 construct: extracellular domain; also called mouse TIGIT extra cellular domain
T3 sequence (looked up): T1 sequence (looked up)
Method: as §1

Binder | IC50 [nM]
B10 | 64.7
B11 | 23.4
B12 | 35.3
B13 | 22
B14 | 632
B15 | > 1000

Each binder was assayed against T4, human TIGIT fused to a beta galactosidase fragment, expressed on YTS cells (human, UniProt Q495A1 22-244) (assay: cell-based or functional assay).
T4 sequence (looked up): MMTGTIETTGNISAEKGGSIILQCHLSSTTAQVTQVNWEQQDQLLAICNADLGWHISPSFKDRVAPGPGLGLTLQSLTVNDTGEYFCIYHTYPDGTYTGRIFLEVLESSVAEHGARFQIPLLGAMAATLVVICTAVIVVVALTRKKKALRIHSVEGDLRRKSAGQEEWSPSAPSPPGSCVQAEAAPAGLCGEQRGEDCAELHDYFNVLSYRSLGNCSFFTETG

Binder | IC50 of inhibition of Grb2 recruitment (YTS_hTIGIT/hGrb2, 221_hPVR/ICAM, 11 pt) [nM]
B12 | 30.3
B15 | 2.3

These binders were tested against T5, His-tagged recombinant Mouse TIGIT (mouse, UniProt P86176 29-148, limits assumed) (assay: ELISA).
T5 construct: coated antigen of the direct ELISA; not shown: His tag
T5 sequence (looked up): T1 sequence (looked up)
Method: (§2) Binding affinities for antigen binding to anti-TIGIT monoclonal antibodies were determined by ELISA. […] Antibodies to be tested were diluted to 1 μM in PBS buffer containing 1% BSA and diluted 3-fold in a 10-point curve. […] Detection of the secondary antibody was determined using streptavidin-HRP and TMB reagent. All assays were performed at room temperature. Curve-fitting software was used to determine the EC₅₀ for each antibody.

Binder | EC50 [nM]
B1 | 0.2
B2 | 2.4
B3 | 0.2
B4 | 6.3
B5 | 32.3
B6 | 7.6
B7 | 0.2
B8 | 0.4
B9 | 4.6

The binders below were run against T6, His-tagged recombinant Human TIGIT (human, UniProt Q495A1 22-141) (assay: ELISA).
T6 construct: Coated on the plate at 0.5 µg/mL in the direct ELISA; also called hTIGIT; not shown: His tag
T6 sequence (looked up): T2 sequence (looked up)
Method: as §2

Binder | EC50 [nM]
B16 | 3.4

The binders below were run against T7, His-tagged recombinant Human TIGIT (human, UniProt Q495A1 22-141) (assay: ELISA).
T7 construct: coated antigen of the direct ELISA; not shown: His tag
T7 sequence (looked up): T2 sequence (looked up)
Method: as §2

Binder | EC50 [nM]
B1 | 0.2
B2 | 0.2
B3 | 0.2
B4 | 0.8
B5 | 0.2
B6 | 4.3
B7 | 0.1
B8 | 0.3
B9 | 1.1

Each binder was assayed against T8, His-tagged recombinant Mouse TIGIT (mouse, UniProt P86176 29-148, limits assumed) (assay: ELISA).
T8 construct: Coated on the plate at 0.5 µg/mL in the direct ELISA; not shown: His tag
T8 sequence (looked up): T1 sequence (looked up)
Method: as §2

Binder | EC50 [nM]
B17 | 10.7
B16 | 5.7

Target: T4, human TIGIT fused to a beta …
Assay: cell-based or functional assay
Remark: another data set of the same source

Binder | EC50 of induced dimerization (YTS_hTIGIT/hTIGIT, 11 pt) [nM]
B10 | 477
B12 | 2.7
B15 | 9.5

Target: T4, human TIGIT fused to a beta …
Assay: cell-based or functional assay
Remark: another data set of the same source

Binder | EC50 of induced dimerization (YTS_hTIGIT/hTIGIT, 11 pt) [nM]
B13 | 4.7

Target: T4, human TIGIT fused to a beta …
Assay: cell-based or functional assay
Remark: another data set of the same source

Binder | IC50 of inhibition of Grb2 recruitment (YTS_hTIGIT/hGrb2, 221_hPVR/ICAM, 11 pt) [nM]
B13 | 60.2

Each binder was assayed against T9, mouse TIGIT-Fc (mouse, UniProt P86176 29-148) (assay: competitive ELISA vs coated PVR).
T9 construct: extracellular domain; also called mouse TIGIT-ECD; not shown: Fc
T9 sequence (looked up): T1 sequence (looked up)
Method: as §1

Binder | IC50 [nM]
B17 | 23.4
B16 | 22

Each binder was assayed against T10, biotinylated human TIGIT extra cellular domain (human, UniProt Q495A1 22-141, biotinylated using the EZ-Link NHS-PEG4-biotin kit) (assay: competitive ELISA vs coated PVR).
T10 construct: extracellular domain; also called human TIGIT-ECD
T10 sequence (looked up): T2 sequence (looked up)
Method: as §1

Binder | IC50 [nM]
B16 | 20.3

The binders below were run against T11, human TIGIT expressed in YTS cells, fused to a portion of beta galactosidase (human, UniProt Q495A1 22-244) (assay: cell-based or functional assay).
T11 sequence (looked up): T4 sequence (looked up)

Binder | YTS_hTIGI/hGrbs_EFC_Agonism (EC50) [nM] | YTS_hTIGI/hGrbs_EFC_Antagonism (IC50) [nM] | YTS_hTIGIT/hTIGIT_EFC (EC50) [nM]
B17 | > 1000 | > 1000 | > 1000
B16 | > 1000 | 60.2 | 4.7

The binders below were run against T12, human TIGIT fused to a beta galactosidase portion, on YTS cells (YTS_hTIGIT/hGrb2) (human, UniProt Q495A1 22-244) (assay: cell-based or functional assay).
T12 sequence (looked up): T4 sequence (looked up)

Binder | YTS_hTIGI/hGrbs_EFC_Antagonism, 221_hPVR/ICAM [µM] | YTS_hTIGI/hGrbs_EFC_Agonism, 221_WT [µM]
B1 | 0.0286 | –
B2 | 0.238 | 0.0358
B3 | 0.0068 | –
B4 | > 1 | 0.0042
B5 | 0.0363 | 0.0077
B6 | 0.0303 | –
B7 | 0.0675 | –
B8 | 0.0259 | –
B9 | 0.45 | 0.0185

What follows are binders tested against T13, biotinylated human TIGIT (human, UniProt Q495A1 22-141, biotinylated (EZ-Link NHS-PEG4-biotin kit)) (assay: competitive ELISA, biotin-hTIGIT to coated PVR).
T13 construct: extracellular domain; also called human TIGIT extra cellular domain; TIGIT-ECD
T13 sequence (looked up): T2 sequence (looked up)
Method: as §1

Binder | IC50 [nM]
B10 | 111
B12 | 9
B13 | 20.3
B14 | 89.9
B15 | 3.8
